Experimental findings from PMC2828873 (2009) are described below.

What is called Kd is a measure of binding affinity in units of concentration. Higher therefore signals lower affinity.

The experiment addresses Stargazin-derived probe 12 (Rattus norvegicus, UniProt Q71RJ2, N-acetyl, X=Dab(4-DMAP), NRR added). Kind of experiment: fluorescence titration.

B1: Shank3 PDZ (protein)
chain: DDKVAILQKRDHEGFGFVLRGAKAETPIEEFTPTPAFPALQYLESVDVEGVAWKAGLRTGDFLIEVNGVNVVKVGHKQVVGLIRQGGNRLVMKVVSVTRKP
Turning to B1, the equilibrium dissociation constant (Kd) is 10 µM.
